Data published in patent publication US6867008 (NEW ENGLAND MEDICAL CENTER HOSPITALS, dated 2005).

Experiments:
mERβ1-622/GalBD = target: T1, mERβ1-622/GalBD (mouse, UniProt P04386 1-147; O08537 46-252); assay: yeast two-hybrid, HIS and β-galactosidase reporters
T1 construct: about the first 207 codons of the short variant ORF (my reading)

mERβ1-516/GalBD = target: T2, mERβ1-516/GalBD (mouse, UniProt P04386 1-147; O08537 46-217); assay: as above
T2 construct: Expression in Y190 confirmed by Western blot

[1] = target: T3, hERα/BD (human estrogen receptor alpha fused to the Gal4 DNA binding domain) (human, UniProt P04386 1-147; P03372 1-595); assay: yeast two-hybrid
T3 construct: also called ERα/GalBD; hERα/GalBD
Text: Screening of the ovine library yielded clone EC1. […] Yeast strain Y190 was transformed with mERβ/BD in combination with EC1/AD and GalAD respectively and plated on Sc-His (synthetic complete medium, minus histidine) and YPD (yeast extract, peptone, dextrose) plates (FIG. 1A). […] Yeast strain Y190 was also transformed with human ER alpha (hERα)/BD in combination with EC1/AD, hERα/BD and Trip 1/AD and plated on Sc-His and YPD plates. Positive interaction of hERα/BD with […] and Trip 1/GalAD was seen only in the presence of estrogen. Colony lift β-Galactosidase assays were also performed with yeasts from the YPD plate in both FIG. 1A and 1B. TIF2 and TRIP1 homologs were found previously by screening a human heart library with mERβ as bait. […] This implies a new function for ER beta that may be separated from its estrogen binding function.

[2] = target: T4, [35S]hERα (in vitro translated human estrogen receptor alpha) (human, UniProt P03372 1-595, [35S]methionine labelled); assay: GST pull-down, SDS-PAGE and autoradiography
T4 construct: also called [^35S] labeled hERα; ER alpha
T4 sequence (looked up): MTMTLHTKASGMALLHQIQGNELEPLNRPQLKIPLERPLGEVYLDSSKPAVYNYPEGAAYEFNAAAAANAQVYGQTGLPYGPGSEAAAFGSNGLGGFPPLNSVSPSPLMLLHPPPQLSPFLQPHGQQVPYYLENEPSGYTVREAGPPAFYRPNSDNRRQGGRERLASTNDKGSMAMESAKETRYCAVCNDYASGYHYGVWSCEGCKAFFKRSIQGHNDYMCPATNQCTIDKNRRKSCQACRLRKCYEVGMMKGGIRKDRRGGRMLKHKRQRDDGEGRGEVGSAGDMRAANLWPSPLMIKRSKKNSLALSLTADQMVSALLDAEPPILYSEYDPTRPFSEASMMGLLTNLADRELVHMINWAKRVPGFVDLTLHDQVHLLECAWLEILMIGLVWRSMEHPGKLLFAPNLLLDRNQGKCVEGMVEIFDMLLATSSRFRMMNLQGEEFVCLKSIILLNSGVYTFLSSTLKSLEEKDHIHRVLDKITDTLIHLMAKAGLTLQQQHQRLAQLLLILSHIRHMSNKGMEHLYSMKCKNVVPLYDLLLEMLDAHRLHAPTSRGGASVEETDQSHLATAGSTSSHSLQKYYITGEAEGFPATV
Protocol: Recombinant proteins were incubated at 4° in suspension buffer (20 mM Tris pH7.4, 137 mM NaCl, 2 mM EDTA pH7.4, 1% TritonX-100, 10% Glycerol, 25 mM β-glycerolphosphate, 1 mM Na vanadate, […], 1 mM PMSF) with either one of the GST fusion proteins immobilized on glutathione-Sepharose beads for 1 hour. Beads were then washed three times in suspension buffer, boiled 5 minutes in SDS sample buffer, and associated proteins resolved by SDS-PAGE. Labeled protein bands in gels were then visualized by autoradiography.
[^35S] labeled mERβ was incubated with GST-beads (Lane 2) and GST-EC1 beads (Lane 3) followed by SDS-PAGE and autoradiography. […] In the complementary experiment (FIG. 4B), [^35S]-labeled hsMAD2 was incubated with GST beads (Lane 2) and GST-mERP beads (Lane 3) followed by SDS-PAGE and autoradiography. […] MAD2 input (FIG. 4B). GST-fusion protein interaction studies were also done with hERα. [^35S] labeled hERα was incubated with GST-mERβ (Lane 2, positive control), GST-beads (Lane 3) and GST-EC1 beads followed by SDS-PAGE and autoradiography.

B1: EC1/AD (ovine clone EC1, MAD2 homolog, fused to the Gal4 activating domain, vector pGAD10) (other, not shown: large carriers)
chain: REQGITLRGSAEIVAEFFSFGINSILYQRGIYPSETFTRVQKYGLTLLVTTDPELIKYLNNVVDQLKEWLYKCSVQKLVVVISNIESGEVLERWQFDIECDKTAKDDSAPREKSQKAIQDEIRSVIRQITATVTFLPLLEVSCSFDLLIYTDKDLVVPEKWEESGPQFITNSEEVRLRSFTTTIHKVNSMVAYKIPVHD
notes: Library clone from ovine pulmonary artery endothelial cells; also called EC1/GalAD
binding result (mERβ1-622/GalBD): binds | binding result (mERβ1-516/GalBD): no binding | binding result [1]: no binding

B2: GST-EC1 (other)
chain: REQGITLRGSAEIVAEFFSFGINSILYQRGIYPSETFTRVQKYGLTLLVTTDPELIKYLNNVVDQLKEWLYKCSVQKLVVVISNIESGEVLERWQFDIECDKTAKDDSAPREKSQKAIQDEIRSVIRQITATVTFLPLLEVSCSFDLLIYTDKDLVVPEKWEESGPQFITNSEEVRLRSFTTTIHKVNSMVAYKIPVHD
notes: Immobilised on glutathione-Sepharose beads; also called GST-MAD2 clone; GST MAD2; not shown: glutathione S-transferase of vector pGEX-4T-1
binding result [2]: no binding
